Laboratory results published in US20140323393A1 (CREATIVE BIO PEPTIDES, published 2014).
Where no end group is shown, it is not given here. [ ]: non-standard residue; d: D form.

Target: Toll-like receptor 4 (TLR4) on monocyte-derived iDC
Experiment: cell-based or functional assay

[dT][dT][dN][dY][dT] [All-D-TTNYT (RAP-103)]
IC50 for inhibition of LPS (100 ng/mL) induced TNF-α secretion in monocyte-derived iDC (ELISA of supernatants, FIG. 5): ~0.1 pM
